Patent publication US8722850B2, “Self-assembling peptides and their use in the formation of hydrogels” (Universita' Degli Studi di Milano Bicocca, priority 2010, dated 2014)
Entries after “also recorded” stand apart in the source; their conditions may differ. Where a SMILES comes first, the peptide text is derived from it. [ ]: non-standard residue; d: D form. The star is where a group is joined. Biotin = O=C1N[C@H]2[C@H](CS[C@H]2CCCCC(=O)*)N1; NHPr = CCCN*

Tests used:
[1] = test system: human Neural Stem Cells (hNSCs); assay: Live/Dead cell imaging (calcein AM / ethidium homodimer); type: cell-based; conditions: cells cultured for 10 days
Experimental: (§1) In vitro tests were performed following a previously adopted methodology (5). Briefly, cells (at a concentration of 6×10^4 cells/cm^2) were seeded on the top-surface of each assembled scaffold previously assembled into 96 multiwells. Initially, cells were cultured with basal medium supplemented with βFGF (10 ng/ml), added to enhance neuronal progeny differentiation. At 3 days in vitro (DIV), βFGF medium was replaced with Leukemia Inhibitory Factor (LIF, Chemicon) (20 ng/ml) and Brain Derived Neurotrophic Factor (BDNF, Peprotech) (20 ng/ml). Fresh medium was added every three days. Positive and negative controls consisted of CULTREX-BME® substrate (R&D systems) (1:100 dilution in basal medium) and untreated bottom well surfaces respectively.
Live/Dead cell imaging (MolecularProbes) was obtained by incubating cells cultured for 10 days with a staining solution containing 2.0 μM calcein AM and 4.0 μM ethidium homodimer in PBS at 37° C. for 60 min and visualized by inverted fluorescence microscope (Zeiss).

[2] = Macro-scale scaffold formation upon exposure to PBS / neutral pH buffer; type: physicochemical; conditions: upon exposure to PBS (1×) / neutral pH buffer
Source text: The tested peptides solutions appearance ranged from peptides giving clear liquid is solutions (e.g. 4, B15, B19, B25, B28, 30) to samples which become opaque in 1 to 7 days after dissolution (e.g. B3, B17, B22, B24, B27, 31) as shown in FIG. 2a (I). Most of the liquid solutions increased in viscosity over the first week after dissolution, however after ten days in water no appreciable changes happened at the macroscale.
(§2) Nonetheless, keeping constant the observation time, the storage moduli of peptide solutions previously dissolved (the day before) at 3% w/v were measured. Measurements were obtained of these peptide solutions, further diluted to 1% w/v at the same day of the experiment (unless otherwise specified), and, after addition of PBS, of the formed scaffolds.

[3] = Self-healing tests of assembled scaffolds after mechanical rupture; type: physicochemical; conditions: recovery of scaffold stiffness after mechanical rupture
Experimental: (§3) Rheological properties were determined for the peptides of the invention, using a controlled stress TA Instruments AR-2000ex rheometer (TAInstruments). A cone-and-plate geometry (acrylic cone diameter, 20 mm; angle, 1°; truncation gap 34 μm) was used. All measurements were obtained at a constant monitored temperature of 25° C. Preliminary strain sweeps were performed for each sample to define the linear viscoelastic region, thus ensuring that moduli were independent of strain. Time sweeps, after addition of PBS (1×) were recorded at constant angular frequency (ω=1 Hz). Frequency sweeps, both for peptide water solutions and for self-assembled scaffolds, were performed with the instrument in oscillatory mode at controlled strain of 1%. Final: onset point of rupture was calculated by linear interpolation and subsequent determination of the intersection of the G′ modes in the linear region and at material rupture respectively. G′ values were averaged in the 1-100 Hz region and between n=3 independent replicates. During self-healing tests the self-assembled scaffold was torn by applying a strain sweep (0.01%-1000% strain range) at 1 Hz oscillatory frequency. G′ values were is recorded in frequency sweep mode (at 1% strain) or, in time sweep mode (at 1 Hz and at 1% strain), before and after the strain sweep step, subsequent observations were performed every half hour or, in case of time sweep test, every 30 seconds. In all of the SAPs the difference between the storage moduli measured before and after PBS addition spanned from two to four orders of magnitude, proving the dramatic biomechanical changes taking place during scaffold gelation. Peptide B3 (1%) yielded a solid stiff scaffold (G′=2917 Pa), supporting the idea that ionic charges may screen the electrostatic repulsions given by positively charged lysine residues and speed up the spontaneous ongoing self-assembling process, on its turn giving an already viscous (G′=67 Pa) and opaque solution at day 1. Among the peptides giving soft scaffold (100 Pa-1000 Pa range) peptides 4, B19, B25, B28 and 30 were included. On the opposite side, SAPs yielding solid stiff scaffolds are B15, B22, B24, B27 and 31 (5000 Pa-9000 Pa range).
Solid scaffolds were obtained via addition of PBS (1×) in a cone-and-plate rheometer; we measured the storage modulus, the samples were subjected to a strain sweep (0.01% to 1000%) until and far beyond rupture occurred (i.e. is monitoring the sudden drop of G′ value). Samples were then left in place (keeping them hydrated with PBS) and their G′ were measured every 30 minutes via frequency sweep tests in the range of 0.1 Hz to 60 Hz. As a negative control KLD-12, a well-known SAP, was tested (4, 6). […] In FIG. 6b peptide B25 (3% w/v concentration) was assessed for self-healing in a time sweep mode, every 30 seconds, at 1 Hz and at 1% strain. Values of G′ recovered after 100 minutes (1000 Pa) and steadily plateaued over time. For peptides B3, B22, B25 and B27 full recovery was obtained at different time intervals after rupture, ranging from 60′ to 240′. Similar results were confirmed by multiple independent experiments, but at different time ranges, for all of the self-assembling peptides except for B19 and B28.
Samples were checked for rupture by tilting. After a maximum of four hours all of the samples returned to their solidified gel appearance. This healing could be repeated at will.

[4] = test system: human Neural Stem Cells (hNSCs); assay: CellTiter 96 Aqueous Proliferation Assay of hNSCs on self-assembled scaffolds; type: cell-based; conditions: 7 DIV, n=6, versus negative control (plastic)
Experimental: Neural precursor cultures are established and expanded as previously described (15, 16). Human neural stem cells (NSCs) were isolated from the central nervous system, in particular from the diencephalon and the cerebral cortex of human brain 10.5 weeks from conception. The modalities for obtaining the primary tissue are in agreement with the guidelines of the European Network for Transplantation (NECTAR).
as §1
Cell viability was quantified via […] 96® Aqueous Proliferation Assay (Promega, Madison, Wis.) at 7 DIV as recommended in the Promega protocol. After calibrating the linear response between the cell number and absorbance values, proliferated cell populations were quantified (n=6) by using a Vmax microplate reader (Molecular Devices, Sunnyvale, Calif.) at 490 nm wavelength. Values, reported as means±standard error of the mean, were blanked to their respective controls consisting of same substrates and cell culture media without cells.
(§4) To assess the potential of the proposed SAPs for cell cultures and, more generally, for regenerative medicine, a two-dimensional cell culture protocol already developed for RADA16-I-like peptides was adapted (5). Briefly, human Neural Stem Cells (hNSCs), mechanically dissociated 1 day before plating, were seeded and cultured for one week in vitro over self-assembled scaffolds of B3, 4, B15, B17, B19, B22, B24, B25, B27, B28, 30, 31 and over non-coated tissue culture plastic wells (negative control).

[5] = test system: human Neural Stem Cells (hNSCs); assay: Phase contrast imaging of hNSC morphology on scaffolds; type: cell-based; conditions: 7 days in vitro
Experimental: as §1, §4

[6] = Rheological tests (storage modulus G′, cone-and-plate rheometer); type: physicochemical
Experimental: as §3
The mechanical properties of the synthesized peptides were tested with a cone-and-plate rheometer. Firstly, the G′ dependence of peptide water solutions on concentration increments, and consequently aggregation kinetics, was assessed as shown in FIG. 2b.
as §2

[7] = Solubility and behaviour on dissolution in water; type: physicochemical
Source text: All of the synthesized peptides are soluble at 1% w/v concentration in distilled water and in acid (0.1 M HCl) solutions.

## C[C@@H](O)[C@H](NC(=O)[C@H](CCCNC(=N)N)NC(=O)[C@@H](NC(=O)[C@H](CO)NC(=O)[C@H](CO)NC(=O)[C@H](Cc1ccccc1)NC(=O)[C@@H]1CCCN1C(=O)CNC(=O)CNC(=O)CNC(=O)CCCC[C@@H]1SC[C@@H]2NC(=O)N[C@@H]21)[C@@H](C)O)C(N)=O [B22] (Biotin-GGGPFSSTRT-NH2)
[1]
  live/dead cell imaging: clamped in poorly branched aggregates; also recorded: bipolar cells

## Ac-WGGGAFSSTKT-CONH2 (Ac-WGGGAFSSTKT-NH2) [peptide 31]
[2]
  solid scaffold / hydrogel formation: yielded solid scaffolds
[3]
  self-healing property: self-healing property has been seen
[4]
  living cell population / hNSC viability (CellTiter assay): comparable to the biotinilated peptides
[5]
  cell morphology / degree of spreading: branched cells

## Ac-WGGGPFSSTKT-CONH2 (Ac-WGGGPFSSTKT-NH2) [peptide 4]
[2]
  solid scaffold / hydrogel formation: yielded solid scaffolds
[3]
  self-healing property: self-healing property has been seen
[4]
  living cell population / hNSC viability (CellTiter assay): comparable to the biotinilated peptides

## Biot-GGG(Propylamine)FSSTKT-CONH2 (Biotin-GGG[NHPr]FSSTKT-NH2) [peptide B28]
[6]
  minimum necessary peptide concentration for gelation: 3 % w/v
[2]
  solid scaffold / hydrogel formation: yielded solid scaffolds
[4]
  living cell population / hNSC viability (CellTiter assay): cell population comparable to those of the other peptides
[5]
  cell morphology / degree of spreading: proliferated cell clusters

## Biot-GGGAFSSTKT-CONH2 (Biotin-GGGAFSSTKT-NH2; SMILES C[C@H](NC(=O)CNC(=O)CNC(=O)CNC(=O)CCCC[C@@H]1SC[C@@H]2NC(=O)N[C@@H]21)C(=O)N[C@@H](Cc1ccccc1)C(=O)N[C@@H](CO)C(=O)N[C@@H](CO)C(=O)N[C@H](C(=O)N[C@@H](CCCCN)C(=O)N[C@H](C(N)=O)[C@@H](C)O)[C@@H](C)O) [B15]
[6]; after PBS (1×) addition, averaged in 1-100 Hz range, 25° C., B3 at 1%
  storage modulus G′ of assembled scaffold (G′ post-assembling): 8500 Pa
[2]
  solid scaffold / hydrogel formation: yielded solid scaffolds
[3]
  self-healing property: self-healing property has been seen
[4]
  living cell population / hNSC viability (CellTiter assay): biggest living cell populations, significantly different from negative control
[5]
  cell morphology / degree of spreading: branched cells

## Biot-GGGAFSSTKTGRGD-CONH2 (Biotin-GGGAFSSTKTGRGD-NH2; SMILES C[C@H](NC(=O)CNC(=O)CNC(=O)CNC(=O)CCCC[C@@H]1SC[C@@H]2NC(=O)N[C@@H]21)C(=O)N[C@@H](Cc1ccccc1)C(=O)N[C@@H](CO)C(=O)N[C@@H](CO)C(=O)N[C@H](C(=O)N[C@@H](CCCCN)C(=O)N[C@H](C(=O)NCC(=O)N[C@@H](CCCNC(=N)N)C(=O)NCC(=O)N[C@@H](CC(=O)O)C(N)=O)[C@@H](C)O)[C@@H](C)O) [B19]
[2]
  solid scaffold / hydrogel formation: yielded solid scaffolds
[4]
  living cell population / hNSC viability (CellTiter assay): significantly different from negative control

## Biot-GGGPFSSTDT-CONH2 (Biotin-GGGPFSSTDT-NH2; SMILES C[C@@H](O)[C@H](NC(=O)[C@H](CC(=O)O)NC(=O)[C@@H](NC(=O)[C@H](CO)NC(=O)[C@H](CO)NC(=O)[C@H](Cc1ccccc1)NC(=O)[C@@H]1CCCN1C(=O)CNC(=O)CNC(=O)CNC(=O)CCCC[C@@H]1SC[C@@H]2NC(=O)N[C@@H]21)[C@@H](C)O)C(N)=O) [B10]
[7]
  self-assembling on dissolution: immediately self-assembling with dissolution in water

## Biot-GGGPFSSTET-CONH2 (Biotin-GGGPFSSTET-NH2; SMILES C[C@@H](O)[C@H](NC(=O)[C@H](CCC(=O)O)NC(=O)[C@@H](NC(=O)[C@H](CO)NC(=O)[C@H](CO)NC(=O)[C@H](Cc1ccccc1)NC(=O)[C@@H]1CCCN1C(=O)CNC(=O)CNC(=O)CNC(=O)CCCC[C@@H]1SC[C@@H]2NC(=O)N[C@@H]21)[C@@H](C)O)C(N)=O) [B12]
[7]
  self-assembling on dissolution: immediately self-assembling with dissolution in water

## Biot-GGGPFSSTNT-CONH2 (Biotin-GGGPFSSTNT-NH2; SMILES C[C@@H](O)[C@H](NC(=O)[C@H](CC(N)=O)NC(=O)[C@@H](NC(=O)[C@H](CO)NC(=O)[C@H](CO)NC(=O)[C@H](Cc1ccccc1)NC(=O)[C@@H]1CCCN1C(=O)CNC(=O)CNC(=O)CNC(=O)CCCC[C@@H]1SC[C@@H]2NC(=O)N[C@@H]21)[C@@H](C)O)C(N)=O) [B11]
[7]
  self-assembling on dissolution: immediately self-assembling with dissolution in water

## Biot-GGGPFSSTQT-CONH2 (Biotin-GGGPFSSTQT-NH2; SMILES C[C@@H](O)[C@H](NC(=O)[C@H](CCC(N)=O)NC(=O)[C@@H](NC(=O)[C@H](CO)NC(=O)[C@H](CO)NC(=O)[C@H](Cc1ccccc1)NC(=O)[C@@H]1CCCN1C(=O)CNC(=O)CNC(=O)CNC(=O)CCCC[C@@H]1SC[C@@H]2NC(=O)N[C@@H]21)[C@@H](C)O)C(N)=O) [B13]
[7]
  self-assembling on dissolution: immediately self-assembling with dissolution in water
